According to US20260166084A1 (published 2026):

Columns and labels:
[1] = target: complex formed between CRBN/DDB1 and iberdomide (UniProt Q96SW2 1-442; Q16531 2-1140); test: TR-FRET displacement; iberdomide
[2] = target: complex formed between CRBN/DDB1 and pomalidomide (UniProt Q96SW2 1-442; Q16531 2-1140); test: TR-FRET displacement; pomalidomide
[3] = target: complex formed between CRBN/DDB1 and lenalidomide (UniProt Q96SW2 1-442; Q16531 2-1140); test: TR-FRET displacement; lenalidomide
complex formed between CRBN/DDB1 and lenalidomide, sequence (Q96SW2 whole entry, chain 1 of 2): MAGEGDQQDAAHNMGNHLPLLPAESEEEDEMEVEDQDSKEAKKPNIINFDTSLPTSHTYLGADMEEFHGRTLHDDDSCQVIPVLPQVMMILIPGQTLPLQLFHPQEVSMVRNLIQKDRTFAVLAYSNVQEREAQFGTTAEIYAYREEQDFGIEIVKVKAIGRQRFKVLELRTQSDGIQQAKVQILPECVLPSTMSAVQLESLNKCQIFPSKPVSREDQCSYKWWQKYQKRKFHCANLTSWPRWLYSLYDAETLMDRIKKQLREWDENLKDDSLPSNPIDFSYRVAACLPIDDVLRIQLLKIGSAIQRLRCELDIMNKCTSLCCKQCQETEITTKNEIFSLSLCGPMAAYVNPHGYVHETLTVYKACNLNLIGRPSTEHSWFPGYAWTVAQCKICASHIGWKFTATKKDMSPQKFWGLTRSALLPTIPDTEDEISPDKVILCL
complex formed between CRBN/DDB1 and lenalidomide, sequence (Q16531 2-1140, chain 2 of 2): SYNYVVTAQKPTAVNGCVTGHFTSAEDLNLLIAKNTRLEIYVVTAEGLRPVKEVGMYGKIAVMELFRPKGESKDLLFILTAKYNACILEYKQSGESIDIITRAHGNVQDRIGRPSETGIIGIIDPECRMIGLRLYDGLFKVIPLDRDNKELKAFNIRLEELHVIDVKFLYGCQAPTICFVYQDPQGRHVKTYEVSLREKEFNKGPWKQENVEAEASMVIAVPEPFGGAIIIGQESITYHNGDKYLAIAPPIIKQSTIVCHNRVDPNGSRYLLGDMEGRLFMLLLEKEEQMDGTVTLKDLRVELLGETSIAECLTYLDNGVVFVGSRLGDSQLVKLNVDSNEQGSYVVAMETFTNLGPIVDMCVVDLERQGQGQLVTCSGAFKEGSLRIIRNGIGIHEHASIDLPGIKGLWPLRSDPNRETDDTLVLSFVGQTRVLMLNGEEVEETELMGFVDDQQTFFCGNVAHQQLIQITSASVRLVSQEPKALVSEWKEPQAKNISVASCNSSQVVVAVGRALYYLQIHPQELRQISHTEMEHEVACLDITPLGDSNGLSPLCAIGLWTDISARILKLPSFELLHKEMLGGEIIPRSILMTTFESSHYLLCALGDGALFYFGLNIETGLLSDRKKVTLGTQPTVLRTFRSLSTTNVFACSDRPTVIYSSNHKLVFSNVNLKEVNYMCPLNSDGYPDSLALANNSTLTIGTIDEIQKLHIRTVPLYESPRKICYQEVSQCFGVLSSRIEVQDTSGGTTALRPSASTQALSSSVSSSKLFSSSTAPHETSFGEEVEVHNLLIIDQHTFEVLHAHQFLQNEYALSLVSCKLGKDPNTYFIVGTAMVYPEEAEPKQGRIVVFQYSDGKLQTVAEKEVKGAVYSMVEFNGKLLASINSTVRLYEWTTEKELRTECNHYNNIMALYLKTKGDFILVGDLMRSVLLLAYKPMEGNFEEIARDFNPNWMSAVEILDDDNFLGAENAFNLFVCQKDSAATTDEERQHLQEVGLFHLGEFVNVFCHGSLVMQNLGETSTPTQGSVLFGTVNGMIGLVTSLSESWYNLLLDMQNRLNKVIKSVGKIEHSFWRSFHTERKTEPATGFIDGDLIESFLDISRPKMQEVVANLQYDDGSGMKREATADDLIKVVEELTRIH

complex formed between CRBN/DDB1 and pomalidomide, sequence (Q96SW2 whole entry, chain 1 of 2): as the sequence (Q96SW2 whole entry, chain 1 of 2) above
complex formed between CRBN/DDB1 and pomalidomide, sequence (Q16531 2-1140, chain 2 of 2): as the sequence (Q16531 2-1140, chain 2 of 2) above
complex formed between CRBN/DDB1 and iberdomide, sequence (Q96SW2 whole entry, chain 1 of 2): as the sequence (Q96SW2 whole entry, chain 1 of 2) above
complex formed between CRBN/DDB1 and iberdomide, sequence (Q16531 2-1140, chain 2 of 2): as the sequence (Q16531 2-1140, chain 2 of 2) above

B1: iTAG2 (DCD23mut) (designed binder)
chain: PNVLMVHNESHTGEIPLQCEICGFTCEQAGNLLNHIELHSGEIPFKCHLCNYACRRRDAL
- IC50 [1]: 556 nM
- IC50 [2]: 834 nM
- IC50 [3]: 860 nM

B2: iTAG1 (DCD23) (designed binder)
chain: PNVLMVHKRSHTGERPLQCEICGFTCRQKGNLLRHIKLHSGEKPFKCHLCNYACRRRDAL
- IC50 [1]: 36.4 nM
- IC50 [2]: 49.8 nM
- IC50 [3]: 78.7 nM
